These results are taken from article PMC9372883 (Antibody Therapeutics, 2022).

This assay concerns the target T1, P9-CCR7 (human, UniProt P32248 25-378).
T1 sequence: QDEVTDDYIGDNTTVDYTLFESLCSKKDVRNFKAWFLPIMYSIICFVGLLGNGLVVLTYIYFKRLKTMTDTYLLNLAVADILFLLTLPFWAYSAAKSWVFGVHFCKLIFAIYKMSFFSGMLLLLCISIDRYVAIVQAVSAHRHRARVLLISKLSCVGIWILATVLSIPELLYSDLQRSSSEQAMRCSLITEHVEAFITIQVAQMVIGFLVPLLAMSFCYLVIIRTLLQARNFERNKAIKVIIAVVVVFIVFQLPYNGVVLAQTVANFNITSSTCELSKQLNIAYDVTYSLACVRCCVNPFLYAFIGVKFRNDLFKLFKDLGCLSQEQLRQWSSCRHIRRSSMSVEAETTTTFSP
In words: ELISA. (In general: ELISA stands for enzyme-linked immunosorbent assay.)

B1: CCL19-H6-Flag (ligand)
chain: GTNDAEDCCLSVTQKPIPGYIVRNFHYLLIKDGCRVPAVVFTTLRGRQLCAPPDQPWVERIIQRLQRTSAKMKRRSS
Usually Kd stands for a measure of binding affinity in units of concentration. A higher Kd goes with weaker binding. B1: the dissociation constant Kd came to 19 nM.

B2: CCL21-H6-Flag (ligand)
chain: SDGGAQDCCLKYSQRKIPAKVVRSYRKQEPSLGCSIPAILFLPRKRSQAELCADPKELWVQQLMQHLDKTPSPQKPAQGCRKDRGASKTGKKGKGSKGCKRTERSQTPKGP
B2 returned a Kd of 11 nM.
